How the values were obtained:
[1] = target: p65 subunit of NF-κB expressed from pCMV-p65 (Homo sapiens (Human)) (UniProt Q04206); experiment: cell-based or functional assay
[2] = target: T1, p65 subunit of NF-κB expressed from pCMV-p65 (Homo sapiens (Human), UniProt Q04206 1-551, limits assumed); experiment: cell-based or functional assay
[3] = target: T1, p65 subunit of NF-κB expressed from …; experiment: co-immunoprecipitation from transfected BV-2 cells

p65 subunit of NF-κB expressed from pCMV-p65 (Homo sapiens (Human)), sequence (Q04206 whole entry S180P): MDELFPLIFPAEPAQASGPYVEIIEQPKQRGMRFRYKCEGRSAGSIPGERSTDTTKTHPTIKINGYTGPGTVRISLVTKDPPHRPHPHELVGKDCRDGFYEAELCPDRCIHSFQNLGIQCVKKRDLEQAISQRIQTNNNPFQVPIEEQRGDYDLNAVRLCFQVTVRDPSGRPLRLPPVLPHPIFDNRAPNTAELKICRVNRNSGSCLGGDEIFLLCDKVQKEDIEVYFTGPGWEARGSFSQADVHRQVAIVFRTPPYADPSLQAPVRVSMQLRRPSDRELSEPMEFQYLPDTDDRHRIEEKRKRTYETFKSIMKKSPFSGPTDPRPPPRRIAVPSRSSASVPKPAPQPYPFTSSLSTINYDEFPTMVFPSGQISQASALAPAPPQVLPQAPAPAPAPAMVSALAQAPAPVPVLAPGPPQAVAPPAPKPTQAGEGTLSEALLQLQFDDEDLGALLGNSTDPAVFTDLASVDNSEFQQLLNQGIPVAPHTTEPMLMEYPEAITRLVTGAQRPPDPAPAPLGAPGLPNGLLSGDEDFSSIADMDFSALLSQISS
T1 sequence (Q04206 whole entry S180P): as above

Molecule “endogenous mouse TDP-43 (from UniProt Q921F2 1-414)” has a decrease in NF-κB activation (4κB^wt-luc) with TDP-43 siRNA versus scrambled siRNA, 5 ng pCMV-p65 [1] of 3 fold, a decrease in NF-κB activation (4κB^wt-luc) with TDP-43 siRNA versus scrambled siRNA, 50 ng pCMV-p65 [1] of 2 fold and a decrease in NF-κB activation (4κB^wt-luc) with TDP-43 siRNA versus scrambled siRNA, 10 and 20 ng pCMV-p65 [1] of 2.5 fold.

B1: TDP-43^ΔNR1-30 (31-81 and 98-176 AAs), N-terminal and RRM-1 deletion mutant with the NLS signal attached (other)
chain: MSEYIRVTEDENDEPIEIPSEDDGTVLLSTKRKMDETDASSAVKVKLPNSKQSQDEPLRSRKVFVGRCTEDMTEDELREFFSQYGDVMDVFIPKPFRAFAFVTFADDQIAQSLCGEDLIIKGISVHISNAEPKHNSNRQLERSGRFGGNPGGFGNQGGFGNSRGGGAGLGNNQGSNMGGGMNFGAFSINPAMMAAAQAALQSSWGMMGMLASQQNQSGPSGNNQNQGNMQREPNQAFGSGNNSYSGSNSGAAIGWGSASNAGSGSGFNGGFGSSMDSKSSGWGM
notes: The printed ranges in brackets are read as the deleted residues (31-81 and 98-176); not shown: HA (hemagglutinin) tag at the extreme C-terminus
In the case of B1, the “level of NF-κB activation detected by the 4κB^wt-luc reporter assay” value [2] is reported as 6 fold lower and the binding result [3] is reported as “no binding”.

B2: TDP-43^ΔN (1-105AAs), HA-tagged deletion mutant (other, not shown: small tags and cut ends)
chain: LIVLGLPWKTTEQDLKEYFSTFGEVLMVQVKKDLKTGHSKGFGFVRFTEYETQVKVMSQRHMIDGRWCDCKLPNSKQSQDEPLRSRKVFVGRCTEDMTEDELREFFSQYGDVMDVFIPKPFRAFAFVTFADDQIAQSLCGEDLIIKGISVHISNAEPKHNSNRQLERSGRFGGNPGGFGNQGGFGNSRGGGAGLGNNQGSNMGGGMNFGAFSINPAMMAAAQAALQSSWGMMGMLASQQNQSGPSGNNQNQGNMQREPNQAFGSGNNSYSGSNSGAAIGWGSASNAGSGSGFNGGFGSSMDSKSSGWGM
B2 was tested, and the “NF-κB gene activation (4κB^wt-luc reporter), compared to full length TDP-43^wt” value [2] was 2 fold.

From US20160091504A1 (UNIVERSITE LAVAL, published 2016)
